Measurements as given in paper PMC2222952, “Structural and Biochemical Bases for the Inhibition of Autophagy and Apoptosis by Viral BCL-2 of Murine γ-Herpesvirus 68” (PLoS Pathogens, 2008).
Like-named read-outs stand apart in the source and are kept apart here. Ends that are not written are not given here.

B6: M11 (residues 1–137), purified alone (domain or fragment)
chain: MSHKKSGTYWATLITAFLKTVSKVEELDCVDSAVLVDVSKIITLTQEFRRHYDSVYRADYGPALKNWKRDLSKLFTSLFVDVINSGRIVGFFDVGRYVCEEVLCPGSWTEDHELLNDCMTHFFIENNLMNHFPLEDI
notes: source: E. coli BL21(DE3), purified (Ni-NTA, Hitrap Q)

How the values were obtained:
[1] = biological target: T1, M11, viral BCL-2 of murine γ-herpesvirus 68 (residues 1–137) (Murid herpesvirus 4, UniProt P89884); type: binding
T1 construct: Each of the DNA fragments coding for M11 (residues 1–137); His6 tag; This is inferred: pPROEX HTa encodes an N-terminal His tag with a TEV site, and purification was on Ni-NTA; (N); made in house; host or cells: E. coli BL21(DE3)
T1 sequence (P89884 whole entry, looked up): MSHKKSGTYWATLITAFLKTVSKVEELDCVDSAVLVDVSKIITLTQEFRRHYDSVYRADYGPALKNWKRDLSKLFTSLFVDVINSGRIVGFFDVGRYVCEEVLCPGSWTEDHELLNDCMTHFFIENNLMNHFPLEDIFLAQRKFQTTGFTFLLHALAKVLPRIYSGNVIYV
Source text: (§1) “HT”, “CCD” and “ECD” denote hydrophobic tail, coiled-coil domain and evolutionarily conserved domain, respectively. […] The surface coloring scheme is as follows: olive for Val, Leu, Ile, Phe, Trp, Met, and Ala; yellow for Cys, Gly, Tyr, and Pro; gray for other amino acids. […] Only the BH3-binding groove region of M11 is shown for clarity. […] The arrows indicate the movements of the Cα atoms of Asp59 and Tyr60 in M11. (C) ITC analysis.
(§2) Figure 5 Analyses of the Interactions between M11 or BCL-2 Proteins and BAX/BAK (A) Cell-based binding assay. 293T cells were transfected with HA-tagged BAK or Flag-tagged BAX together with the indicated GST-tagged prosurvival BCL-2 proteins. Whole cell lysates were used for immunoprecipitation with anti-GST followed by immunoblotting with anti-HA or anti-Flag. […] (B) ITC analyses of the interactions of M11 with the BH3 peptides of BAX or BAK. The ITC analysis was carried out by titrating 0.1 mM of the indicated peptides into 5 μM of M11. The ITC run for the titration of the 26-mer BAK peptide is shown. […] NIH3T3 cells were transfected with HA-tagged M11 and whole cell lysates were used for immunoprecipitation with control rabbit serum or anti-BAK followed by immunoblotting with anti-HA.
(§3) A plasmid containing the DNA segment coding for human BCL-2 (residues 1–50 and 92–207) was also constructed. The resulting protein lacks the internal long loop (residues 51–91) and contains a replacement of residues 35–50 with residues 33–48 of BCL-XL, which was necessary for the solubility of the protein as reported earlier. Each construct was introduced into the E. coli BL21(DE3) strain. The proteins were expressed at 21 °C overnight and purified using a Ni-NTA column and a Hitrap Q anion exchange column.
(§4) All measurements were carried out at 25 °C on a MicroCalorimetry System (MicroCal). Protein samples were dialyzed against the solution containing 20 mM Tris-HCl (pH 7.4) and 100 mM NaCl. The samples were degassed for 20 min and centrifuged to remove any residuals prior to the measurements. Dilution enthalpies were measured in separate experiments (titrant into buffer) and subtracted from the enthalpies of the binding between the protein and the titrant. Data were analyzed using the Origin software (OriginLab Corp.).

MCL ∆N151 ∆C23 = tested on: MCL ∆N151 ∆C23; parameters: method as in earlier work; details: Table S1; relative values, not absolute KD; peptides of Chen et al. are the same as or 1 to 2 residues shorter than those of this paper; read-out: binding affinity for MCL ∆N151 ∆C23 (relative value, competitive binding assay); cited from earlier work
A1 ∆C20 = tested on: A1 ∆C20; parameters: method as in earlier work; details: Table S1; relative values, not absolute KD; peptides of Chen et al. are the same as or 1 to 2 residues shorter than those of this paper; read-out: binding affinity for A1 ∆C20 (relative value, competitive binding assay); cited from earlier work
[2] = biological target: T2, M11, viral BCL-2 of murine γ-herpesvirus 68 (residues 1–137) (Murid herpesvirus 4, UniProt P89884); type: binding; details: ITC, 25 °C, 20 mM Tris-HCl (pH 7.4), 100 mM NaCl; Table S2
T2 construct: Each of the DNA fragments coding for M11 (residues 1–137); His6 tag; This is inferred: pPROEX HTa encodes an N-terminal His tag with a TEV site, and purification was on Ni-NTA; (N); made in house; host or cells: E. coli BL21(DE3)
Source text: as §1, §2, §3, §4

BCL-2 ∆C22 = tested on: BCL-2 ∆C22; parameters: method as in earlier work; details: Table S1; relative values, not absolute KD; peptides of Chen et al. are the same as or 1 to 2 residues shorter than those of this paper; read-out: binding affinity for BCL-2 ∆C22 (relative value, competitive binding assay); cited from earlier work
BCL-XL ∆C24 = details: Table S1; relative values, not absolute KD; peptides of Chen et al. are the same as or 1 to 2 residues shorter than those of this paper; read-out: binding affinity for BCL-XL ∆C24 (relative value, competitive binding assay); cited from earlier work
BCL-w ∆C29 = details: Table S1; relative values, not absolute KD; peptides of Chen et al. are the same as or 1 to 2 residues shorter than those of this paper; read-out: binding affinity for BCL-w ∆C29 (relative value, competitive binding assay); cited from earlier work
[3] = biological target: T3, mouse BCL-XL (residues 1–44 and 85–196) (mouse, UniProt Q64373-1 1-196, lacking the internal long loop (residues 45–84)); assay: native gel or EMSA; details: both partners purified
T3 construct: also called BCL-XL lacking the internal long loop and the C-terminal tail region
T3 sequence (Q64373 other isoform, or with tags, fused parts or gaps with the stated changes): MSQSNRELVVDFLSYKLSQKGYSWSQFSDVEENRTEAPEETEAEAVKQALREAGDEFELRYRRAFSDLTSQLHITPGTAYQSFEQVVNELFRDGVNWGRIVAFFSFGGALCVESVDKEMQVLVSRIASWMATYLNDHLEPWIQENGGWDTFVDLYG

[4] = biological target: B6; assay: ITC; details: both partners purified
Beclin1(101–267) = biological target: T4, Beclin1(101–267) (mouse, UniProt O88597 101-267); assay: ITC; details: both partners purified
T4 construct: also called Beclin1 fragment containing residues 101–267; large Beclin1 fragment; source: E. coli BL21(DE3), purified (Ni-NTA, Hitrap Q)

[5] = biological target: human BCL-2 (residues 1–50 and 92–207); assay: Isothermal titration calorimetry (ITC) of BCL-2 with Beclin1 fragment; type: binding
Procedure: Figure 3 M11 Interacts Much More Tightly with Beclin1 than BCL-2 and BCL-XL (A) ITC analysis. The measurement was carried out by titrating 0.1 mM of M11 or BCL-2 into 5 μM of the indicated Beclin1 fragment. The K D values were deduced from curve fittings of the integrated heat per mol of added ligand. (B) M11–Beclin1 interface is tighter than that of BCL-XL–Beclin1. The structures of M11–Beclin1 fragment (left) and BCL-XL–Beclin1 peptide (right) are compared side by side. In both the structures, the five consensus BH3 residues of the bound α-helices and the side chains of M11 or BCL-XL interacting with those residues are shown as sticks and labeled. Noted are the tighter interactions of the N-terminal region of Beclin1 with the α3 helix of M11 than the corresponding region in the BCL-XL–Beclin1 helix (indicated by dotted circles).
Each of the DNA fragments coding for M11 (residues 1–137), mouse BCL-XL (residues 1–44 and 85–196) or mouse Beclin1 (residues 101–267) was cloned into pPROEX HTa. […]
All measurements were carried out at 25 °C on a MicroCalorimetry System (MicroCal). […] Dilution enthalpies were measured in separate experiments (titrant into buffer) and subtracted from the enthalpies of the binding between the protein and the titrant. Data were analyzed using the Origin software (OriginLab Corp.).

[6] = 25 °C, 20 mM Tris-HCl (pH 7.4), 100 mM NaCl
[7] = ITC, 25 °C, 20 mM Tris-HCl (pH 7.4), 100 mM NaCl, Table S2

BAK (16-mer; residues 69-84): synthetic 16-mer peptide, residues 69–84 of BAK, spanning the BH3 domain (LGQVGRQLALIGDDIN)
interaction with M11 in ITC, in words (KD could not be deduced) [1, 6]: flat titration curve

EEEWAREIGAQLRRMADDLNAQYERR [PUMA]
IC50 (MCL ∆N151 ∆C23): 5 nM
IC50 (A1 ∆C20): 5.7 nM

HRAEVQIARKLQCIADQFHRLHTQ [BMF]
-T∆S (M11 + BH3) [2]: -2.56 kcal/mol
∆G (M11 + BH3) [2]: -8.90 kcal/mol
∆H (M11 + BH3) [2]: -6.34 ± 0.07 kcal/mol
IC50 (BCL-2 ∆C22): 3 nM
IC50 (BCL-XL ∆C24): 9.7 nM
IC50 (BCL-w ∆C29): 9.8 nM
IC50 (MCL ∆N151 ∆C23): 1100 nM
IC50 (A1 ∆C20): 1800 nM

BIK: synthetic 25-mer BH3 peptide, residues 45–69 of BIK (VEGRNQVALRLACIGDEMDLCLRSP)
interaction with M11 in ITC, in words (KD could not be deduced) [1, 6]: did not interact or poorly interacted
IC50 (BCL-XL ∆C24): 43 nM
IC50 (BCL-w ∆C29): 12 nM
IC50 (A1 ∆C20): 58 nM

Beclin1 fragment composed of residues 101–116: a shorter Beclin1 fragment composed of residues 101–116 (ASDGGTMENLSRRLKV)
interaction with M11 in ITC, in words (KD could not be deduced) [1, 6]: no sign of interaction

RWAAAQVTALRLQALGDELHRRAMRR [Hrk]
IC50 (BCL-2 ∆C22): 320 nM
IC50 (BCL-XL ∆C24): 3.7 nM
IC50 (BCL-w ∆C29): 49 nM
IC50 (A1 ∆C20): 46 nM

B1: BAD BH3 peptide, 27-mer (residues 137–163 of BAD) (peptide, UniProt Q61337 137-163, looked up)
peptide: APPNLWAAQRYGRELRRMSDEFEGSFK
notes: also called BAD peptide; source: synthetic peptide, bought: Peptron (Korea)
binding result [3]: binds

B2: Noxa BH3 peptide, 26-mer (residues 16–41 of Noxa) (peptide, UniProt Q9JM54 16-41, looked up)
peptide: RAELPPEFAAQLRKIGDKVYCTWSAP
notes: also called Noxa peptide; source: synthetic peptide, bought: Peptron (Korea)
binding result [4]: binds

B3: human BCL-2 (residues 1–50 and 92–207, residues 35–50 replaced with residues 33–48 of BCL-XL) (domain or fragment, UniProt P10415-1 1-34, looked up)
chain: MAHAGRTGYDNREIVMKYIHYKLSQRGYEWDAGDNRTEAPEGTESEMETPVVHLTLRQAGDDFSRRYRRDFAEMSSQLHLTPFTARGRFATVVEELFRDGVNWGRIVAFFEFGGVMCVESVNREMSPLVDNIALWMTEYLNRHLHTWIQDNGGWDAFVELYGPSMR
notes: also called cellular BCL-2; source: E. coli BL21(DE3), purified (Ni-NTA, Hitrap Q)
Kd (Beclin1(101–267)): 1700 nM

B4: PUMA BH3 peptide, 26-mer (residues 130–155 of PUMA) (peptide, UniProt Q99ML1 130-155, looked up)
peptide: EEEWAREIGAQLRRMADDLNAQYERR
notes: also called PUMA peptide; source: synthetic peptide, bought: Peptron (Korea)
binding result [4]: binds

B5: BIM BH3 peptide, 26-mer (residues 139–164 of BIM) (peptide, UniProt O54918-1 139-164, looked up)
peptide: DLRPEIRIAQELRRIGDEFNETYTRR
notes: also called BIM peptide; source: synthetic peptide, bought: Peptron (Korea)
binding result [4]: binds
binding result [3]: binds

B6
Kd (Beclin1(101–267)): 40 nM

B7: BID BH3 peptide, 25-mer (residues 80–104 of BID) (peptide, UniProt P70444 80-104, looked up)
peptide: EEIIHNIARHLAQIGDEMDHNIQPT
notes: also called BID peptide; source: synthetic peptide, bought: Peptron (Korea)
binding result [4]: binds

B8: BAK BH3 peptide, 26-mer (residues 65–90 of BAK) (peptide, UniProt O08734 65-90, looked up)
peptide: PNSILGQVGRQLALIGDDINRRYDTE
notes: also called BAK peptide; 26-mer BAK peptide; source: synthetic peptide, bought: Peptron (Korea)
Kd [4]: 76 nM

B9: BAX BH3 peptide, 26-mer (residues 52–77 of BAX) (peptide, UniProt Q07813-1 52-77, looked up)
peptide: QDASTKKLSECLRRIGDELDSNMELQ
notes: also called BAX peptide; source: synthetic peptide, bought: Peptron (Korea)
Kd [4]: 690 nM

B10: Beclin1(101–267): mouse Beclin1 fragment containing residues 101–267, expressed as a soluble form in E. coli (protein)
chain: ASDGGTMENLSRRLKVTGDLFDIMSGQTDVDHPLCEECTDTLLDQLDTQLNVTENECQNYKRCLEILEQMNEDDSEQLQRELKELALEEERLIQELEDVEKNRKVVAENLEKVQAEAERLDQEEAQYQREYSEFKRQQLELDDELKSVENQVRYAQIQLDKLKKTNV
Kd ([1]; ITC, 25 °C, 20 mM Tris-HCl (pH 7.4), 100 mM NaCl, 0.1 mM M11 titrated into 5 μM Beclin1 fragment, KD from curve fitting, listed as Residues 101 - 267, read-out: KD (M11 – Beclin1 fragment)): 40.2 ± 9.05 nM
Kd ([1]; ITC, 25 °C, 20 mM Tris-HCl (pH 7.4), 100 mM NaCl, 0.1 mM M11 titrated into 5 μM Beclin1 fragment, KD from curve fitting, read-out: KD (M11 – Beclin1 fragment)): 40 nM
-T∆S (M11 + Beclin1) [1, 7]: 4.23 kcal/mol
∆G (M11 + Beclin1) [1, 7]: -10.10 kcal/mol
∆H (M11 + Beclin1) [1, 7]: -14.33 ± 0.23 kcal/mol
Kd ([1]; ITC, read-out: dissociation constant (M11 – BH3-like domain of Beclin1)): 40 nM
Kd ([5]; 25 °C, 20 mM Tris-HCl (pH 7.4), 100 mM NaCl, Table S2, read-out: KD (BCL-2 + Beclin1)): 1680 ± 452 nM
Kd ([5]; read-out: binding affinity between cellular BCL-2 and Beclin1): 1700 nM
